Fewer inactive variants are shown than the library holds.
B1: TPR 5TU (parent)
chain: GGAUCUUCUCGAUCUAACAAAAAAGACAAAUCUGCCACAAAGCUUGAGAGCAUCUUCGGAUGCAGAGGCGGCAGCCUUCGGUGGCGCGAUAGCGCCAACGUUCUCAACUAUGACACGCAAAACGCGUGCUCCGUUGAAUGGAGUUUAUCAUG

Variants of: B1
Assay: polymerase ribozyme fitness, log enrichment relative to wild type (log ratio); higher = more active; in vitro selection for triplet polymerase activity
Method in brief: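 One round of in vitro selection, in triplicate, was applied to PCR-built, transcribed mutant libraries of each subunit of a heterodimeric triplet polymerase ribozyme. The steps were annealing with a biotinylated primer, partner subunit and triplets, incubation frozen at −7 °C, gel excision of extended constructs, streptavidin-bead capture and RT-PCR. Fitness is the logarithm, base 2, of genotype enrichment over wild-type enrichment from inverse-variance-weighted replicate averages of Illumina-sequenced inputs and outputs, keeping genotypes with ≥10 input reads and ≥1 read per output.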

Variant	polymerase ribozyme fitness (log ratio)
G48A G50A C54A C93G U104A	≤ -4.2
A49C G74C C87A C125U	≤ -4.2
A49G C85G C93U	≤ -4.2
G48U G65A C95U C105U C129G C132U	≤ -4.2
A49C G62C U139C	≤ -4.2
G48C A60G C76G G94C U104C C131U	≤ -4.2
A49C C57U U101G	-2.69
G48C C85A A120G	-2.75
G48A G133U	-3.81
G48C C76A U90G U130G	≤ -4.2
G48A G59A	-0.452
G48A G59C	-0.874
A49C C75A G81C C93G A106C U109A G136A	≤ -4.2
A49G G62U C63U C96A A122U	-3.19
A49G G50A U55A U146C	-1.98
A49C U56A G88U A122C C125U	≤ -4.2
A49C G50C C76U A91U A97U U111C G143C A150U	≤ -4.2
G48U U53A C85U	-1.94
G48U A52U C93A C95U U145A	≤ -4.2
A49C A97G U148C	≤ -4.2
G48U A49C C69G G86A C93U U139G A150G	≤ -4.2

Variant	polymerase ribozyme fitness (log ratio)
A49C G84C	≤ -4.2
A49C A119U	≤ -4.2
A49G G58A	-0.296
A49C U82A G86A G126A	≤ -4.2
G48A G88A C105G A115U	-3.86
A47U U56A C95U A119U U135A	-2.15
A49C U53A G88C G141C	≤ -4.2
A47U U77C C85A C93G A107U	≤ -4.2
G48A U61A C105G	≤ -4.2
G48A U55A C57G A66U G83C U90A C108U G124U	≤ -4.2
A49C A52U G84A C105U G124U	≤ -4.2
G48C C54A C108G C114U C125U U134A C149G	≤ -4.2
A49C G71C U101G A137U A150U	≤ -4.2
G48A C149U	-1.46
G48A G88A U134C U144G	≤ -4.2
A49C G81A G112A C114U G128A G133A	≤ -4.2
A49C A89U A138U	≤ -4.2
A49G C87A A89C U90A C129U	≤ -4.2
A49G G59C G67A G70A U77C U82C A89G C95G	≤ -4.2
G48A G67A U77C A97U U145G A150U	≤ -4.2
G48U U55A C96G A115U	-4.16

Variant	polymerase ribozyme fitness (log ratio)
A49C C51U A52C G62A G70A G84A A106G A115G	≤ -4.2
G48A G59A A60G A97G	-3.58
A49C U55A	≤ -4.2
G48C G94U C96U C118G A122U	-3.42
G48A G59C C63U G86C	-3.98
A49C C85U	-3.49
G48C U82G G128C U135A	-3.96
G48C A98G U101C U144A A147U	-0.0628
A49G G50U C51U C96U A98C G126A U134G U146A	-3.95
A49C C79A C108U C123A	≤ -4.2
G48A G92U C123A	-0.538
G48U G126U	-0.307
G48U C75G G92U	≤ -4.2
G48C G126U	-0.372
A47U U53A	-1.33
A49C A106G	-4.12
A49G G83A U144G A147U	-1.87
A49C A52U A138U	≤ -4.2
G48A G59U C87U A97U G136A	-1.99
G48C C76U	-3.15
A47U G124A	0.304

Variant	polymerase ribozyme fitness (log ratio)
G48U U55A C99U	-2.23
A49G G50A G140U	-3.96
A47U U101G C116G	-2.38
G48C A73U U135G	≤ -4.2
A49C G68A	≤ -4.2
A49G A52C	-1.27
G48A A52U U56A U78A A98U U139C	≤ -4.2
G48C C51U C69A C116G	≤ -4.2
A49C U101G G141U	-1.78
G48A U55G A142C	-2.84
A49G A60U	-1.62
G48C C93G	-3.04
A49C C54U	≤ -4.2
A49C G84C U90G C103G A115U	≤ -4.2
A49G C114U U144A	-4.06
G48A C76A G94C A106G U127A G141C	≤ -4.2
A49C C57U	-3.72
A47U U55A G141U	-1.14
A49C C51U G133A G143U	≤ -4.2
G48U C118G	-0.339

Source: the RNAGym collection of RNA variant scans (doi:10.1073/pnas.2313332121)
